Data: article PMC12216690, “MORC2 is a phosphorylation-dependent DNA compaction machine” (Nature Communications, 2024)
Where a chain is given by its changes, count along the chain named. Names and notes keep the numbering of the source.

Assays:
[1] = target: the molecule itself; test: SEC-MALS; XBridge Protein BEH SEC column; 50 mM HEPES pH 8.0, 300 mM NaCl, 1 mM TCEP; 20 µl of protein at 1 mg/ml injected; no nucleotide
[2] = target: the molecule itself; test: atomic force microscopy; dry AFM, 10 nM MORC2 in 40 mM Tris pH 7.5, 50 mM NaCl, 1 mM MgCl2, 0.5 mM TCEP, with 1 mM ATP, with 1 mM AMP-PNP or without ATP, on poly-O-lysine treated mica; particle volumes fitted with two gaussians
[3] = target: the molecule itself; test: cryo-EM structure; 2 µM protein with AMP-PNP, with or without three-fold molar excess of 60 bp DNA; C2 symmetry imposed
[4] = target: the molecule itself; test: number and brightness analysis (fluorescence fluctuation spectroscopy); live MORC2 knockout HEK293T cells with low expression of MORC2-meGFP, nucleus, 37 degrees; without or with 0.5 µg/mL neocarzinostatin for 1 hour
MORC2 dephosphorylated = target: T1, MORC2 dephosphorylated (Homo sapiens, UniProt Q9Y6X9 1-1032); test: SPR; lambda-PPase treated; EMSA: 20 mM Tris pH 7.4, 75 mM NaCl, 5% glycerol, 0.005% NP-40, 0.5 mM MgCl2, RT 30 min; SPR: 10 mM HEPES pH 7.4, 300 mM NaCl, 3 mM EDTA, 0.05% Tween-20, 20 C; settings: protein: recombinant; tags: C-terminal 3C site-twin StrepII; chain copies: 2; label: 5'-biotin on strand 1; blunt
T1 sequence: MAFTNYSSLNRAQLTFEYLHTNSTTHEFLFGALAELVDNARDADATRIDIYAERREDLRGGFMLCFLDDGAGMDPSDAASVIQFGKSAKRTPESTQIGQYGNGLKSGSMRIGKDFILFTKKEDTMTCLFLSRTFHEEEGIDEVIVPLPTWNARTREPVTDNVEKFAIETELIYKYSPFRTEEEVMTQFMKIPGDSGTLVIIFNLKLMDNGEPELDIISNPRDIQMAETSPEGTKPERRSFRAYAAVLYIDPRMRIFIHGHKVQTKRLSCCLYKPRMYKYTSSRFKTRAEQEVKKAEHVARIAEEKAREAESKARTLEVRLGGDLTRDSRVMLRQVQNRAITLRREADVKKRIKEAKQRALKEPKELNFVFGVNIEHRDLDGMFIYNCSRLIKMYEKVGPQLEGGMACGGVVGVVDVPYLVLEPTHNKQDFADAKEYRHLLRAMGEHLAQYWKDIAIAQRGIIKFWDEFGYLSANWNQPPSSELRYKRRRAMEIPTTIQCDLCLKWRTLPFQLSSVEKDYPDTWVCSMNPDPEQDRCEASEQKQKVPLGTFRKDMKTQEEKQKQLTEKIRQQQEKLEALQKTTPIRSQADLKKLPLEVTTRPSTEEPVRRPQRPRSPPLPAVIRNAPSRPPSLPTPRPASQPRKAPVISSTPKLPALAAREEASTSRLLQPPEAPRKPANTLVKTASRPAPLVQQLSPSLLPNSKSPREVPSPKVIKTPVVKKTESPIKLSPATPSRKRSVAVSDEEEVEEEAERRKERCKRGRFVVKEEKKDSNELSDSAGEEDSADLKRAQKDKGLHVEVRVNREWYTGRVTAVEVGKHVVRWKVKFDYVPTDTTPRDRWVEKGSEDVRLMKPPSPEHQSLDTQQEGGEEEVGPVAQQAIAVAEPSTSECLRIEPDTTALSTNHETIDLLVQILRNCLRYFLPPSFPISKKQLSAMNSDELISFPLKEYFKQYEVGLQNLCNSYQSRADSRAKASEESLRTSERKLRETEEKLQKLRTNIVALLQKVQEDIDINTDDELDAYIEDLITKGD

MORC2 WT [5] = target: T2, MORC2 WT (Homo sapiens, UniProt Q9Y6X9 1-1032); test: SPR; EMSA: 20 mM Tris pH 7.4, 75 mM NaCl, 5% glycerol, 0.005% NP-40, 0.5 mM MgCl2, RT 30 min; SPR: 10 mM HEPES pH 7.4, 300 mM NaCl, 3 mM EDTA, 0.05% Tween-20, 20 C; settings: protein: recombinant; tags: C-terminal 3C site-twin StrepII; chain copies: 2; label: 5'-biotin on strand 1; blunt
T2 sequence: T1 sequence

MORC2 CC3 = target: T3, MORC2 CC3 (Homo sapiens, UniProt Q9Y6X9 738-776); test: EMSA; DNA length inferred; EMSA: 20 mM Tris pH 7.4, 75 mM NaCl, 5% glycerol, 0.005% NP-40, 0.5 mM MgCl2, RT 30 min; SPR: 10 mM HEPES pH 7.4, 300 mM NaCl, 3 mM EDTA, 0.05% Tween-20, 20 C; settings: protein: recombinant; tags: C-terminal 3C site-twin StrepII; label: 5' 6FAM, IRDye680 or IRDye800 on XOm1; blunt
T3 chain: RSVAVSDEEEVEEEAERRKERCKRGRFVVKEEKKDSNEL

MORC2 CC2 = target: T4, MORC2 CC2 (Homo sapiens, UniProt Q9Y6X9 544-587); test: as above; settings: protein: recombinant; tags: C-terminal 3C site-twin StrepII; label: 5' 6FAM, IRDye680 or IRDye800 on XOm1; blunt
T4 chain: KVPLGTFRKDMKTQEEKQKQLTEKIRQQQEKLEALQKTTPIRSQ

MORC2 CW = target: T5, MORC2 CW (Homo sapiens, UniProt Q9Y6X9 496-603); test: EMSA; negligible binding; EMSA: 20 mM Tris pH 7.4, 75 mM NaCl, 5% glycerol, 0.005% NP-40, 0.5 mM MgCl2, RT 30 min; SPR: 10 mM HEPES pH 7.4, 300 mM NaCl, 3 mM EDTA, 0.05% Tween-20, 20 C; settings: protein: recombinant; tags: C-terminal 3C site-twin StrepII; label: 5' 6FAM, IRDye680 or IRDye800 on XOm1; blunt
T5 sequence: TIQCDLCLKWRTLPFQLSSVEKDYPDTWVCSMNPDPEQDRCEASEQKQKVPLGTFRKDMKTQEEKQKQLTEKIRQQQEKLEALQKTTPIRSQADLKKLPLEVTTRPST

MORC2 GHKL+CC1 = target: T6, MORC2 GHKL+CC1 (Homo sapiens, UniProt Q9Y6X9 1-495); test: as above; settings: protein: recombinant; tags: C-terminal 3C site-twin StrepII; label: 5' 6FAM, IRDye680 or IRDye800 on XOm1; blunt
T6 sequence: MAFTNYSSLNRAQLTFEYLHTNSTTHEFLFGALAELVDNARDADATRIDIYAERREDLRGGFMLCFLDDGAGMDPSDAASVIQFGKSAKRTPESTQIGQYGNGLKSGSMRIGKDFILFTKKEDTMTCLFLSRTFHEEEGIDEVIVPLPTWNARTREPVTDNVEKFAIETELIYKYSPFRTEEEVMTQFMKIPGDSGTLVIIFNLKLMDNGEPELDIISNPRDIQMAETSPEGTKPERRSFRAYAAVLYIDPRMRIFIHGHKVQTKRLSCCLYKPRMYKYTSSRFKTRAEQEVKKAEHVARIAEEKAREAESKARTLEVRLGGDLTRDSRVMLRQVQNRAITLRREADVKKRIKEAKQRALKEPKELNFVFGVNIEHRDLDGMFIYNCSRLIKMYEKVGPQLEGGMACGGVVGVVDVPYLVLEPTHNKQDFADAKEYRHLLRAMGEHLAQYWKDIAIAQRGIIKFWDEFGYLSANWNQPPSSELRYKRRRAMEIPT

MORC2 WT [6] = target: T2, MORC2 WT; test: competition; pre-bound; 90 bp competitor still taken up; EMSA: 20 mM Tris pH 7.4, 75 mM NaCl, 5% glycerol, 0.005% NP-40, 0.5 mM MgCl2, RT 30 min; SPR: 10 mM HEPES pH 7.4, 300 mM NaCl, 3 mM EDTA, 0.05% Tween-20, 20 C; settings: protein: recombinant; tags: C-terminal 3C site-twin StrepII; chain copies: 2; linear

B1: full-length MORC2 (MORC2^WT) (natural protein, human, UniProt Q9Y6X9 1-1032, looked up)
chain: T1 sequence
modifications: came phosphorylated from insect cells at multiple sites; top 6 hits S725, S730, S739, S743, S777, S779
notes: MORC2, human, UniProt Q9Y6X9, full length (1-1032); No cleavage of the tag is described; the SPR and single-molecule methods speak of StrepII-tagged MORC2; also called MORC2 WT (1-1032); MORC2^Apo; source: Sf9 insect cells, purified (Strep-Tactin, HiTrap Q, Superose 6 SEC)
- stoichiometry N [1]: 2

B2: ATP-binding-deficient mutant MORC2 N39A (MORC2^N39A) (natural protein, human, UniProt Q9Y6X9 1-1032, looked up)
chain: T1 sequence with N39A
notes: MORC2, human, UniProt Q9Y6X9, full length with N39A; also called N39A mutant; source: Sf9 insect cells, purified (Strep-Tactin, HiTrap Q, Superose 6 SEC)
- binding result [2]: binds

B3: full-length MORC2 ATPase-dead mutant (MORC2^S87A) (natural protein, human, UniProt Q9Y6X9 1-1032, looked up)
chain: T1 sequence with S87A
notes: MORC2, human, UniProt Q9Y6X9, full length with S87A; Only the ATPase domain is modelled in the cryo-EM map; also called S87A mutant; source: Sf9 insect cells, purified (Strep-Tactin, HiTrap Q, Superose 6 SEC)
- binding result [3]: binds

B4: MORC2 phosphodead (MORC2^PD) mutant (natural protein, human, UniProt Q9Y6X9 1-1032, looked up)
chain: T1 sequence with S725A, S730A, S739A, S743A, S777A, S779A
notes: MORC2, human, UniProt Q9Y6X9, full length with six serine to alanine mutations in the CTD; Only the ATPase domain is modelled in the cryo-EM maps; also called MORC2^PD-DNA; source: Sf9 insect cells, purified (Strep-Tactin, HiTrap Q, Superose 6 SEC)
- binding result [3]: binds

B5: monomeric eGFP (meGFP)-tagged MORC2 (natural protein, human, UniProt Q9Y6X9 1-1032, looked up)
chain: T1 sequence
notes: MORC2, human, UniProt Q9Y6X9; Probably the full-length cDNA; also called MORC2-meGFP; pBacMam-MORC2-meGFP-StrepII; source: expressed in MORC2 knockout HEK293T cells, in live cells
- fold increase of dimers upon neocarzinostatin [4]: ~2 fold

B6: 60 bp dsDNA (biotin, SPR) (dsDNA)
DNA 1: ACGCTGCCGAATTCTACCAGTGCCTTGCTAGGACATCTTTGCCCACCTGCAGGTTCACCC
DNA 2: GGGTGAACCTGCAGGTGGGCAAAGATGTCCTAGCAAGGCACTGGTAGAATTCGGCAGCGT
- Kd (MORC2 dephosphorylated): 15.3 ± 9.1 nM
- Kd (MORC2 WT [5]): 26.3 ± 11.4 nM

B7: 60 bp dsDNA (XOm1/XOm1.comp) (dsDNA)
DNA 1: B6 DNA 1
DNA 2: B6 DNA 2
- binding result (MORC2 CC3): no binding
- binding result (MORC2 CC2): binds
- binding result (MORC2 CW): no binding
- binding result (MORC2 GHKL+CC1): no binding

B8: 101 bp linear dsDNA (dsDNA)
DNA 1: CGGTCGTTTAGCATACTAATCTGAGAGTCCGACGGTCGTCAGTCAGTCATGACTTCACAGAGGAAGGGCCAGTATCCTGTCCAAACTTGATGCTCGAATTC
DNA 2: GAATTCGAGCATCAAGTTTGGACAGGATACTGGCCCTTCCTCTGTGAAGTCATGACTGACTGACGACCGTCGGACTCTCAGATTAGTATGCTAAACGACCG
- binding result (MORC2 WT [6]): binds
